Patent US6946255 (KO OKUMURA, dated 2005)

B1: soluble human Fas ligand molecule (ligand, UniProt P48023 130-281, looked up)
chain: QIGHPSPPPEKKELRKVAHLTGKSNSRSMPLEWEDTYGIVLLSGVKYKKGGLVINETGLYFVYSKVYFRGQSCNNLPLSHKVYMRNSKYPQDLVMMEGKMMSYCTTGQMWARSSYLGAVFNLTSADHLYVNVSELSLVNFEESQTFFGLYKL

Legend:
[1] = target: T1, human Fas expressed on WR19L cells (human, UniProt P25445 26-335); experiment: cell-based or functional assay
T1 sequence (looked up): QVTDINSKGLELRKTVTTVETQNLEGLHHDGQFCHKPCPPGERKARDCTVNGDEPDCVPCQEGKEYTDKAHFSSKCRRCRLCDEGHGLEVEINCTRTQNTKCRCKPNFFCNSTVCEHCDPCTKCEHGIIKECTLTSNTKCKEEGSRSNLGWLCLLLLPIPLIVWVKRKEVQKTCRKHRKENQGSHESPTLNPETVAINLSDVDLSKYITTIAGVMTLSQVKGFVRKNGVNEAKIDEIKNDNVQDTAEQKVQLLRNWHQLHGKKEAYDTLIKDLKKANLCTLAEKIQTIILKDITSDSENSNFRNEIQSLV

[2] = target: B1; experiment: cell-based or functional assay
[3] = target: T2, monkey Fas ligand on activated rhesus monkey peripheral blood mononuclear cell surfaces (rhesus monkey, UniProt P63307 1-280); experiment: flow cytometry (FACScan) on activated rhesus monkey PBMC, 1 µg antibody, PE-anti-mouse Ig's
T2 construct: whole, on cells; also called Fas ligand on monkey cell surfaces
T2 sequence (looked up): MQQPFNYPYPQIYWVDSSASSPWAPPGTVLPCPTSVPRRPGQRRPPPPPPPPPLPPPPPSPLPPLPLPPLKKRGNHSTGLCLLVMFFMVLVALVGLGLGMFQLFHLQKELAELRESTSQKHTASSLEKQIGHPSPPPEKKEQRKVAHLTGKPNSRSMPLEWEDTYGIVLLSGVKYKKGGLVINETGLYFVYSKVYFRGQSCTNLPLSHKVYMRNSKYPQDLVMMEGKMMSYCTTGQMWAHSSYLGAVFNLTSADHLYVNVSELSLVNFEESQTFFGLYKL
Procedure: Five milliliters of peripheral blood were collected from a rhesus monkey using a heparinized syringe. After the blood was diluted to ½ with PBS, its lymphocyte fraction was recovered by the specific gravity centrifugation using Separate L. These monkey peripheral blood mononuclear lymphocytes were cultured for 2 days in a 10% FCS•RPMI 1640 medium containing 10 μg/ml of Con A to activate them. Thereafter, the cells were recovered by centrifugation, and then cultured further for a week in a 10% FCS•RPMI 1640 medium containing 50 units/ml of human IL-2 (interleukin-2). After a week, PMA and ionomycin were added to give concentrations of 10 ng/ml and 500 ng/ml, respectively, to activate the cells further for 4 hours. At this time, BB94 (matrix protease inhibitor) was added in a proportion of 10 μM at the same time. The Fas ligand was expressed in a large amount on the lymphocytes by these activation processes. After 4 hours, the cell were collected to analyze them by flow cytometry. After collecting the cells, the number of cells was first counted to adjust the cells to 1 ×10^6 cells/ml with PBS. Thereafter, the cells were placed in portions of 1 ml into tubes (Farcon No-2008), and 100 μl of control PBS, 1 μg of NOK1 antibody (100 μl of one diluted to a concentration of 10 μg/ml with PBS), 1 μg of monoclonal antibody NOK2 (similarly, 100 μl at a concentration of 10 μg/ml) and 1 μg of monoclonal antibody NOK3 (similarly, 100 μl at a concentration of […]) were separately placed in the tubes, thereby conducting a reaction for 30 minutes on an ice bath.
After the respective cultures were centrifugally washed twice with PBS. 1 µl of PE-anti-mouse Ig's were placed in the tubes to conduct a reaction further for 30 minutes on the ice bath. After the cultures were washed with PBS and separately suspended in 200 µl of PBS, they were analyzed by FACScan.

[4] = target: T3, 10-mer peptide consisting of residues 5 to 14 of SEQ ID NO: 31 (immobilized on the tip of a Pepset pin); experiment: Pepset pin ELISA, HRP-labeled anti-mouse IgG
T3 construct: One of 44 overlapping 10-mer peptides of the extracellular domain of the Fas ligand
T3 peptide: VYMRNSKYPQ
Procedure: (§1) ⑨ After the pin of the Pepset was taken out of the well of the plate, 2N H_2SO_4 was added in an amount of 50 μl to each well to stop the reaction.

[5] = target: T4, 10-mer peptide consisting of residues 1 to 10 of SEQ ID NO: 31 (immobilized on the tip of a Pepset pin); experiment: Pepset pin ELISA, HRP-labeled anti-mouse IgG
T4 construct: One of 44 overlapping 10-mer peptides of the extracellular domain of the Fas ligand
T4 peptide: LSHKVYMRNS
Procedure: as §1

Binder | Survival rate [1] [%] | Survival rate [2] [%] | binding result [3] | binding result [4] | binding result [5]
B1 | 3.5 | – | – | – | –
monoclonal antibody NOK1 (produced by Hybridoma NOK1, FERM BP-5044) (antibody, V domains shown, Used as hybridoma culture supernatant, as antibody purified from ascites, biotin-labelled, or coupled to Sepharose beads; also called NOK1 antibody; biotinized monoclonal antibody NOK1) VH: VQLQESGPELVKPGASVKISCKASGYAFSSSWMNWVKQRPGKGLEWIGRIYPGDGDTNDNGKFKGKATLTADKSSSTAYMQLSSLTSEDSAVYFCARSYYYDGSPWFTYWGQGTTVTVSS VL: DIQMTQSPSSLSASLGDRVTISCRASQDISNYLNWYQQKPDGTVKLLIYYTSRLHSGVPSRFSGSGSGTDYSLTISNLEPEDIATYFCQQYSEFPWTFGGGTKLEIKR | – | 99.3 | binds | – | –
monoclonal antibody NOK2 (produced by Hybridoma NOK2, FERM BP-5045) (antibody, V domains shown, also called NOK2 antibody) VH: VQLQQSGAELVRPGTSVKMSCKAAGYTFTNYWIGWVKQRPGHGLEWIGYLYPGGLYTNYNEKFKGKATLTADTSSSTAYMQLSSLTSEDSAIYYCARYRDYDYAMDYWGQGTTVTVSS VL: DVLMTQTPLSLPVNIGDQASISCKSTKSLLNSDGFTYLGWCLQKPGQSPQLLIYLVSNRFSGVPDRFSGSGSGTDFTLKISRVEAEDLGVYYCFQSNYLPLTFGSGTKLEIKR | – | 105 | binds | binds | binds
monoclonal antibody NOK3 (produced by Hybridoma NOK3, FERM BP-5046) (antibody, V domains shown, also called NOK3 antibody) VH: VKLQESGPELVKPGASVKISCKASGYAFSSSWMNWVKQRPGKGLEWIGRIYPVNGDTNYNGKFKGKATLTADKSSSTAYMQLSSLTSEDSAVYFCATDGYWYFDVWGQGTTVTVSS VL: NIVMTQSPKSMSMSVGERVTLSCKASENVDIYVSWYQQKPEQSPKLLIYGTSNRYTGVPDRFTGSGSATDFTLTISNVQAEDLSDYYCVQSYSYPWTFGGGTKLEIKR | – | 101 | binds | – | –
monoclonal antibody NOK4 (produced by Hybridoma NOK4, FERM BP-5047) (antibody, V domains shown) VH: VQLQESGPGLVKPSQSLSLTCSVTGYSITSGYYWNWIRQFPGNKLEWMGYISYDGSNNYNPSLKNRISITRDTSKNQFFLKLNSVTTEDTATYYCAVYYYDGSSFDYWGQGTTVTVSS VL: DIVLTQSPASLAVSLRQRATISCRASEGVDSYGISFMHWYQQKPGQPPKLLIYRASYLKSGVPARFSGSGSRTDFTLTIDPVEADDAATYYCQQNNEDPWTFGGGTKLEIKR | – | 110 | – | – | –
monoclonal antibody NOK5 (produced by Hybridoma NOK5, FERM BP-5048) (antibody, V domains shown) VH: VQLQESGAEPAKPGASVKMSCKASGYTFTTYWMHWVKQRPGQGLEWIGYINPSSGYTEYNQKFKDKATLTADKSSSTAYMQLISLTSEDSAVYYCARRGNYYYFDYWGQGTTVTVSS VL: DVLMTQTPKFLPVSAGDRVTMTCKASQSVGNNVAWYQQKPGQSPKLLIYYTSNRYTGVPDRFTGSGSGTDFTFTISSVQVEDLAVYFCQQHYSSPYTFGSGTKLE | – | 98.2 | – | – | –
